# Test results published in patent publication US20160264650A1 (Regeneron, published 2016).
# Read-outs that look alike come from different tables or passages of the source.
# B1: H1H3343P (antibody, V domains shown)
# VH: EVQLVESGGGLVQPGGSLRLSCVASGFNFRIYAMSWVRQAPGKGPEWVSGISGSGDNTYYAASVKGRFTVSRDNSKNTLYLQMTSLRAEDTAVFYCARGWELLNYWGQGTLVTVSS
# VL: DIQMTQSPSSLSASVGDRVTITCRASLDIGNFLAWFQQKPGTAPKSLIYSASSLQTGVPSKFSGSGSGTDFTLTISSLQPEDFATYYCQQYNSYPPTFGPGTKVDIKR
# B2: H1H3344P (antibody, V domains shown)
# VH: EVQLVESGGGLVQPGGSLRLSCAASGFTFKIYAMSWVRQGPGKGLEWVSAISGNGDKTYYTDSVQGRFTISRDNSKNTLFLQMNSLRAEDTAIYYCARGWELLNYWGQGTLVTVSS
# VL: DIQMTQSPSSLSASIGDRVTITCRASQDISNSLAWFQQKPGKAPKSLIYAASSLQSGVPSRFSGSGSGTDFTLTISSLQPEDFATYYCQQYIPFPPTFGPGTKVDIKR
# B3: H1H3347P (antibody, V domains shown)
# VH: EVQLVESGGGLVQPGGSLRLSCVASGFTFTSYAMSWVRQAPGRGLQWVSAIGGSGDSIYYADSVKGRFTISRDNSKNTLYLQMDSLRAEDTAVYYCARGWELLNYWGQGTLVTVSS
# VL: DIQMTQSPSSLSASVGDRVTITCRASQDIGNFLAWFQQKPGKAPKSLIYAASSLKSGVPSKISGSGSGTDFTLTINSLQPEDFATYYCQQYNIYPPTFGPGTKVDIKR
# B4: H2M3121N (antibody, V domains shown)
# VH: EVQLVESGGDLVQPGGSLRLSCAASGVTFRTYEMNWVRQAPGKGLEWISHISSSGDIIYYTKSVKGRFTISRDNAKNSLFLQMTSLRAEDTAVYYCARERYSQYGYYYFGMDVWGQGTTVTVSS
# VL: DIQMTQSPSTLSASIGDRVTITCRASQNTDKWMAWYQQKAGKAPKLLIYKASILESGVPSRFSGSGSGTEFTLTISSLQPDDFATYYCQEYNTYFRAFGQGTKVETR
# notes: also called H2aM3121N; H1M3121N
# Key:
# [1] = molecular target: T1, C-term receptor Binding Domain (CBD) of toxin B (Clostridium difficile, UniProt P18177 1851-2366); assay: SEC (Superose 6) of CBD and mAb mixture
# T1 construct: also called CBD-B
# CBD-toxin A-Fc [2] = molecular target: T2, CBD-toxin A-Fc (Clostridium difficile, UniProt P16154 1848-2710); assay: SPR Biacore, mAb captured, 100 nM CBD-A-Fc flowed
# T2 construct: also called CBD-A; C-term Toxin A
# CBD-toxin B-Fc [3] = molecular target: T3, CBD-toxin B-Fc (Clostridium difficile, UniProt P18177 1851-2366); assay: SPR Biacore, CBD-B-Fc captured, 500 nM mAb flowed
# T3 construct: also called CBD-B; C-term Toxin B
# CBD-toxin A-Fc [4] = molecular target: T2, CBD-toxin A-Fc; assay: SPR Biacore, mAb capture and CBD-Fc capture formats
# CBD-toxin A-Fc [5] = molecular target: T2, CBD-toxin A-Fc; assay: SPR Biacore, CBD-A-Fc captured, 500 nM mAb flowed
# [6] = molecular target: T4, Clostridium difficile toxin B, soluble full-length (TechLab) (Clostridium difficile, UniProt P18177 2-2366); assay: SPR Biacore T200, 37C, mAb capture
# T4 construct: also called tcdB
# [7] = molecular target: T4, Clostridium difficile toxin B, soluble …; assay: cell-based or functional assay
# CBD-toxin B-Fc [8] = molecular target: T3, CBD-toxin B-Fc; assay: SPR Biacore, mAb capture and CBD-Fc capture formats
# [9] = molecular target: T5, C-term receptor Binding Domain (CBD) of toxin A (Clostridium difficile, UniProt P16154 1848-2710); assay: SEC (Superose 6) of CBD and mAb mixture
# T5 construct: also called CBD-A; recombinant CBD of toxin A
# [10] = molecular target: T6, Clostridium difficile toxin A, soluble full-length (TechLab) (Clostridium difficile, UniProt P16154 1-2710); assay: cell-based or functional assay
# [11] = molecular target: T4, Clostridium difficile toxin B, soluble …; assay: SPR Biacore T200, 37C, mAb capture; remark: listed apart in the source
# [12] = molecular target: T6, Clostridium difficile toxin A, soluble …; assay: SPR Biacore T200, 37C, mAb capture
Binder,binding result [1],binding (RU) (CBD-toxin A-Fc [2]),binding (RU) (CBD-toxin B-Fc [3]),binding result (CBD-toxin A-Fc [4]),binding (RU) (CBD-toxin A-Fc [5]),Kd [6] [nM],T½ [6] [min],koff [6] [s⁻¹],kon [6] [M⁻¹ s⁻¹],"IC50, Vero cell viability (neutralization), Trial 1, 0.1 pM Toxin B [7] [pM]","IC50, Vero cell viability (neutralization), Trial 2, 0.1 pM Toxin B [7] [pM]","IC50, Vero cell viability (neutralization), Trial 3, 0.03 pM Toxin B [7] [pM]",binding result (CBD-toxin B-Fc [8]),further results
B1,"no binding (tested: CBD at ~500 nM, CBD:Mab 1:5 and 1:20)",11,-4,no binding,3,1.58,26,0.000448,284000,280,200,50,,
B2,"no binding (tested: CBD at ~500 nM, CBD:Mab 1:5 and 1:20)",5,-2,no binding,5,4.24,13,0.000865,204000,580,400,40,,
B3,"no binding (tested: CBD at ~500 nM, CBD:Mab 1:5 and 1:20)",42,,,-13,2.4,14,0.000813,339000,130,90,25,no binding,
B4,,0,,no binding,23,,,,,,,,no binding,"binding result [9]: no binding (tested: CBD at ~500 nM, CBD:Mab 1:5 and 1:20); IC50, Vero cell viability (neutralization), Trial 1, 32 pM Toxin A [10]: 65 pM; IC50, Vero cell viability (neutralization), Trial 2, 32 pM Toxin A [10]: 35 pM; Kd [11]: 1.24 nM; T½ [11]: 152 min; koff [11]: 7.58e-05 s⁻¹; kon [11]: 61100 M⁻¹ s⁻¹; Kd [12]: 0.172 nM; T½ [12]: 69 min; koff [12]: 0.000166 s⁻¹; kon [12]: 969000 M⁻¹ s⁻¹"
